Legend:
Hexim1-deltaPYNT = Hexim1-deltaPYNT (human, UniProt O94992 1-201+206-359, internal_change); assay: ITC; ITC: 20 mM HEPES pH 7.5, 150 mM KCl, 1 mM TCEP, 295 K; NMR: 50 mM Na phosphate pH 6.2, 150 mM KCl, 0.02% NaN3, 5% D2O, 298 K; EMSA: binding buffer (20 mM HEPES); conditions: protein: recombinant; chain copies: 2; hairpin
[1] = molecular target: Hexim1 BR-L-AR(S183C-MTSL) (human, UniProt O94992 142-253, S183C); assay: NMR (PRE); 1:1.2 protein:RNA; intensity recovery outside BR; ITC: 20 mM HEPES pH 7.5, 150 mM KCl, 1 mM TCEP, 295 K; NMR: 50 mM Na phosphate pH 6.2, 150 mM KCl, 0.02% NaN3, 5% D2O, 298 K; EMSA: binding buffer (20 mM HEPES); conditions: protein: recombinant; tags: MBP-His6 removed by TEV; non-native N-terminal G; MTSL spin label at C183; hairpin with U40U41 and U63 bulges
Hexim1 NBLA-S158EE = Hexim1 NBLA-S158EE (human, UniProt O94992 1-157+=EE+159-253, internal_change); assay: ITC; N=0.74; ITC: 20 mM HEPES pH 7.5, 150 mM KCl, 1 mM TCEP, 295 K; NMR: 50 mM Na phosphate pH 6.2, 150 mM KCl, 0.02% NaN3, 5% D2O, 298 K; EMSA: binding buffer (20 mM HEPES); conditions: protein: recombinant; hairpin with U40U41 and U63 bulges
Hexim1 NBLA-S158EE, sequence (O94992 other isoform, or with tags, fused parts or gaps): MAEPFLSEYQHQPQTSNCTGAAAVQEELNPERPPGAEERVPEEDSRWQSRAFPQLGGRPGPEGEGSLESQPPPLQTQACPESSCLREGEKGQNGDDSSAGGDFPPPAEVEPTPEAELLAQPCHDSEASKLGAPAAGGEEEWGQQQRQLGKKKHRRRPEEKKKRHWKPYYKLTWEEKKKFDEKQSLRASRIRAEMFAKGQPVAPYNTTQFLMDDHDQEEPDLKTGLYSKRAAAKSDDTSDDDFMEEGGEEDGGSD

Hexim1-deltaPYNT, sequence (O94992 other isoform, or with tags, fused parts or gaps | mutant): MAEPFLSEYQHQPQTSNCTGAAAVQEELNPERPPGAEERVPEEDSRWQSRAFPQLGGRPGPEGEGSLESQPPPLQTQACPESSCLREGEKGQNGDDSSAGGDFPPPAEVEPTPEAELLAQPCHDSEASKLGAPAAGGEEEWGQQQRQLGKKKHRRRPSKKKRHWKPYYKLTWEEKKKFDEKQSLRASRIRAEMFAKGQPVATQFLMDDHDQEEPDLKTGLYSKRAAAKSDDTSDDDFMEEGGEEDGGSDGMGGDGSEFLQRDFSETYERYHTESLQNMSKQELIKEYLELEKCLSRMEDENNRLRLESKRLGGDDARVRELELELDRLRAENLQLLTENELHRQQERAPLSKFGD
Hexim1 BR-L-AR(S183C-MTSL), sequence (O94992 142-253 S183C): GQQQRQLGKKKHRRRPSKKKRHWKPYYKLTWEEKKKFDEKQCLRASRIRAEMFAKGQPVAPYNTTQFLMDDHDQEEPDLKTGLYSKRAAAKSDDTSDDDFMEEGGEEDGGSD

Binder | binding signal (Hexim1-deltaPYNT) | binding result [1] | Kd (Hexim1 NBLA-S158EE) [µM]
GGAUGUGAGGGCGAUCUGGCUUCGGCCUUCCUCCCUCACCGCUCCA (structured_RNA) [7SK SL1-p] | ~5 fold tighter than wild-type Hexim1 | – | –
GGCCAUUGAUCGCCUUCGGGCUGAUCUGGCC (structured_RNA) [7SK SL1-dI] | – | binds | 0.727 ± 0.063

— PMC12901311, “HEXIM1 inter-monomer autoinhibition governs 7SK RNA binding specificity and P-TEFb inactivation” (Nature Communications, 2024)
